The values that follow are results of earlier work, collected in publication PMC5654615.

Read-outs that look alike come from different tables or passages of the source.

In data set [1] the target is MD2 (Homo sapiens) (UniProt Q9Y6Y9). Nature of the data set: SPR. In general terms: Surface plasmon resonance follows binding to a sensor surface in real time, without labels.
The target in data set [2] is TLR4/MD2 complex (Homo sapiens) (UniProt O00206). Put plainly: SPR.
Data set [3] deals with TLR4 (Homo sapiens) (UniProt O00206). Put plainly: SPR.
The target of data set [4] is TLR4/MD2 complex (Homo sapiens) (UniProt O00206).

Chain of UniProt Q9Y6Y9 (Q9Y6Y9 19-160): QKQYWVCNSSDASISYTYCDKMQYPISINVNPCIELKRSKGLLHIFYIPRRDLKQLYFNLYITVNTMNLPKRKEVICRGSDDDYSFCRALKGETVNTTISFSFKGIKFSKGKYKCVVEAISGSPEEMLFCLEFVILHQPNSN

The term Kd denotes the constant that tells how readily two partners part at equilibrium. Consider CIRP (from UniProt Q14011), for which the results for the Kd in data set [1], in data set [2] and in data set [3] were 302 nM, 239 nM and 617 nM, respectively.

For HMGB1 (from UniProt P09429), in data set [4], the Kd was 1500 nM.
